The results in this text go back to patent CN113416248A (INST MILITARY MEDICINE ACADEMY MILITARY SCIENCES PLA, dated 2021).

The assay deals with T1, 金黄色葡萄球菌B型肠毒素(SEB)抗原 (Staphylococcus aureus enterotoxin B) (Staphylococcus aureus, UniProt P01552 28-266).
T1 sequence: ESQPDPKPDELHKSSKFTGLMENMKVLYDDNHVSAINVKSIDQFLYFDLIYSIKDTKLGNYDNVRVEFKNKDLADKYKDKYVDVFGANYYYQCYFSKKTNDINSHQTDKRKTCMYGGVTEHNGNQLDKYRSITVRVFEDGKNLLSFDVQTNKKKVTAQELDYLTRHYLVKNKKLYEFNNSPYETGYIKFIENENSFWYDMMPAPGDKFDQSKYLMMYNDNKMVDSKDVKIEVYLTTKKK
The experiment in a line: monoclonal phage ELISA on coated SEB antigen, anti-M13-HRP, OD450. A general note: ELISA stands for enzyme-linked immunosorbent assay.

B1: 抗肠毒素的纳米抗体 (anti-SEB nanobody, heavy chain variable region SEQ ID NO: 8) (VHH)
VHH: QVQLVESGGGSVQAGASLTLSCVVSVRTDSYAMGWMRQAPGKEREVIAGVSWSGQSTTYADSVKGRFTISRDNAKRAVYLQMGNLKPEDTAVYYCAMGRAPFYIGLTSEPEAYESWGQGTQVTVSL
Consider B1, for which the binding result was “binds”.
